# Molecular target: T1, human Kv1.3 (huKv1.3) (Homo sapiens, UniProt P22001)
# T1 construct: host or cells: CHO
# Assay: QPatch automated patch-clamp, CHO cells stably expressing human Kv1.3 (Examples 19-21)
# Assay type: cell-based
# Details: huKv1.3, four-point curves of FIG. 32, Table E19; read-out: IC50
# Procedure: The effect of these KnotBodies on cells expressing human Kv1.3 (huKv1.3) channel was assessed using the QPatch automated patch-clamp platform (Sophion, Ballerup, Denmark). For the testing of Kv1.3 ion channel currents, CHO cells stably expressing human Kv1.3 (GenBank accession number NM_002232.2; cell line catalogue number CT6133, Charles River Discovery, Cleveland, USA) were subjected to a QPatch electrophysiology assay in the presence or absence of the KnotBody fusions or the antibody isotypes (negative controls). Internal and external physiological solutions were freshly prepared prior to the assay. The extracellular solution contained 145 mM NaCl, 4 mM KC1, 2 mM CaC12, 1 mM MgC12, 10 mM HEPES and 10 mM glucose; the pH was adjusted to 7.4 with NaOH; the osmolarity was ~ 305 mOsm/L. The intracellular solution contained: KF (120 mM), KC1 (20 mM), HEPES (10 mM) EGTA (10 mM); the pH was adjusted to 7.2 with KOH; osmolarity was ~ 300 mOsm/L.
# (§1) A series of depolarising voltage (channel activating) pulses were used to monitor the channel currents upon adding control (extracellular solution) to define a control baseline of current activity. To these measured control currents four, ascending concentrations of KnotBodies (including KB_A12_ShK and KB_A12_KTX as previously described in Example 8) or parental antibody isotypes (control molecules) were applied to the external bathing solution. KnotBodies KB_A12 and KB_A07 (EETI-II fusions) were used as isotype controls for the testing. From a holding voltage of -80 mV a depolarising, activating voltage pulses of +30 mV were applied for 300 ms, every 10 seconds. The elicited, maximum outward current values measured during the activating step for each solution exchange period, averaged (n = 3 - 6 for each concentration applied) and plotted as concentration-response curves (see FIG. 32). From these concentration-response curves IC50 values were calculated.
# For the testing of Kv1.1 and Kv1.3, CHO-S expressing huKv1.1 (described above) or CHO cells stably expressing huKv1.3 (Charles River Lab) were analysed using the QPatch electrophysiology assay in the presence or absence of the KnotBody fusions. Internal and external physiological solutions were freshly prepared prior to the assay. The extracellular solution contained 145 mM NaCl, 4 mM KC1, 2 mM CaC12, 1 mM MgC12, 10 mM HEPES and 10 mM glucose; the pH was adjusted to 7.4 with NaOH; the osmolarity was ~ 305 mOsm/L. The intracellular solution contained: KF (120 mM), KC1 (20 mM), HEPES (10 mM) EGTA (10 mM); the pH was adjusted to 7.2 with KOH; osmolarity was ~ 300 mOsm/L.
# as §1, with “(including previously described” for “(including”, “KB_A12_KTX” for “KB_A12_KTX as previously”, “[…]” for “+30 mV”, “33).” for “32).”, “calculated (see Table E20).” for “calculated.”
# For the testing of Kv1.1 and Kv1.3, CHO-S expressing huKv1.1 (see Example 20 and below) or CHO cells stably expressing huKv1.3 (Charles River Lab) were analysed using the QPatch electrophysiology assay in the presence or absence of the KnotBody fusions - see details in Examples 19 and 20.
# T1 sequence (P22001 whole entry): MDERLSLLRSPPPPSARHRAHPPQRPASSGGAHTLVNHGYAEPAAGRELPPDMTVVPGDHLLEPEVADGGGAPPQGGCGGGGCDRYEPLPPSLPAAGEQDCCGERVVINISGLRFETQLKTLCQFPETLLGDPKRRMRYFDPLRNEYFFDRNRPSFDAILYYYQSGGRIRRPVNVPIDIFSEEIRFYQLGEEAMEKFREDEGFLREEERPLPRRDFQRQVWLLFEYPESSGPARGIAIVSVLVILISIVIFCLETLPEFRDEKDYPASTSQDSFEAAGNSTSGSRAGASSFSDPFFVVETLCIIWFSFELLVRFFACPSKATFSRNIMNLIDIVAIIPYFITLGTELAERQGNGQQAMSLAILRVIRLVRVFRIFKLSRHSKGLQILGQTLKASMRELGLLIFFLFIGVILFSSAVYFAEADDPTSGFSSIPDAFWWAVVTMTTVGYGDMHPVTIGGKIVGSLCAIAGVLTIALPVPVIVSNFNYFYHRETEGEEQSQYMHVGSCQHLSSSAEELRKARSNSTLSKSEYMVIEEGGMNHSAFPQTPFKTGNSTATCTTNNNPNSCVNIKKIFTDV
row,Molecule,IC50 [nM]
1,"KB_A07_HsTx1 (antibody, V domains shown) VH: EVQLVESGGGLVRPGGSLRLSCAASGFTFSSYAMSWVRQAPGKGLEWVSAISGSGGSTYYADSVKGRFTISRDNTKNSLYLQMTSLRADDTAFYYCVKDFGPGYGTGWFDYWGPGTLVTVSS VL: DIQMTQSPSSLSASVGDRVTITCRASQSISSYLNWYQQKPGKAPKLLIYAAGVASCRTPKDCADPCRKETGCPYGKCMNRKCKCNRCSRSGVPSRFSGSGSGTDFTLTISSLQPEDFATYYCQQGASPPYTFGQGTKVEIKR",4.7
2,"KB_A12_ADWX1: ADWX-1 in VL CDR2 of KB_A12, IgG (antibody, V domains shown) VH: EVQLVESGGGLVRPGGSLRLSCAASGFTFSSYAMSWVRQAPGKGLEWVSAISGSGGSTYYADSVKGRFTISRDNTKNSLYLQMTSLRADDTAFYYCVKDFGPGYGTGWFDYWGPGTLVTVSS VL: QSVLTQPPSVSEAPRQRVTITCSGSSSNIGNNAVNWYQQLPGKAPKLLIYAAGRVGINVKCKHSRQCLKPCKDAGMRFGKCTNGKCHCTPKANSGVSDRFSAAKSGTSASLAINGLRSEDEADYYCAAWDDSLNGYVFGTGTKLTVLG",270

# Test system: trypsin
# Assay: Phage TRF binding assay on immobilised biotinylated trypsin (monoclonal phage ELISA)
# Details: EETI-II in 5-3 frame, value in brackets after clone name
# Procedure: Phage display technology facilitates isolation of binders to any given target from large combinatorial repertoires based on proteins and peptides that can be presented on the surface of filamentous phage^105. In order to isolate functional knottin-antibody fusions from the KnotBody libraries multiple rounds of phage display selections on trypsin (cognate antigen for the EETI-II donor) were carried out. Phage particles were prepared by rescuing KnotBody libraries using trypsin cleavable helper phage ^102,106Two rounds of phage display selections were performed on 10 µg/ml biotinylated trypsin immobilised on Streptavidin (for Round-1) or Neutravidin (for round-2) coated Maxisorp™ immunotubes (Thermo Scientific, Cat No. 444202). In both rounds of selection, phage libraries were pre-incubated with streptavidin coated paramagnetic beads (Thermo Fisher Scientific, Cat. No. 11205D). These beads were removed prior to the addition the phage to the antigen tubes to limit the streptavidin binders entering the selection. Polyclonal phage preparations from round-2 selection outputs were analysed for trypsin binding using a time resolved fluorescence (TRF) binding assay. In this assay, polyclonal phage binding to biotinylated trypsin immobilised on neutravidin (Thermo Fisher Scientific, Cat. No 31000) coated Maxisorp™ plates (Thermo Scientific, Cat. No. 437111) was detected using a mouse anti-M13 antibody (GE Healthcare, Cat. No. 27-9420-01) followed by europium conjugated anti-mouse antibody (Perkin Elmer, Cat. No. AD0124).
# In order to identify monoclonal KnotBodies with desired binding characteristics, 94 individual clones derived from 2 rounds of selection using EETI-II CDR1 or CDR2 libraries were picked into 96 well culture plates and phage were prepared from each clone. Methods for screening by monoclonal phage ELISA are known in the art^107. […] Clones with >3x binding signal above background were picked as positive clones and sequenced to identify unique clones. 14 and 42 unique binders were identified from EETI-II CDR1 and EETI-II CDR2 libraries respectively (Table 1). 18 binders from the EETI-II CDR2 library and 3 binders from the EETI-II-CDR1 library were chosen for further characterisation based on their VL and linker sequence diversity. These binders were assigned new clone identification numbers (Table 2).
# The trypsin binding capability of EETI-II is attributed to proline (Pro3) and arginine (Arg4) residues present in its loop1 (GCPRILMRC; SEQ ID NO: 68). […] Monoclonal phage was prepared from the 21 selected clones and their mutant equivalents. […] Replacement of the trypsin-binding residues of EETI-II abolished the ability of all KnotBody clones to bind to trypsin (Table 3). In order to confirm that the loss of trypsin binding was not due to reduced expression or display of pIII fusion phage was prepared from 11 (randomly chosen) KnotBodies and their GlyAla variants were analysed on a western blot using an antibody which recognises the product of gene 3 (pIII) using an anti-pIII antibody (MoBiTec GmbH) (FIG. 6).
# Bovine antibodies have been described with natural ultra-long VH CDR3s containing a solvent exposed double stranded antiparallel sheet approximately 20 A° in length (referred to as the stalk) presenting a folded domain stabilised by 3 disulfide bonds (referred to as the Knob)^10. Zhang and colleagues have shown that the Knob domains of these cow ultra-long VH CDR3 antibodies (ULVC-Ab) can be replaced with other folded proteins such as erythropoietin^13. In this example, we assess the ability of a cow ULVC-Ab to present functional knottin fusions on phage in comparison with a KnotBody. In order to create a Knottin-cow UCLA fusion, the sequence between the first and the last cysteines of the knob region of the Cow ULVC-Ab BLV1H12 was replaced with the sequence of the trypsin binding knottin; EETI-II (EETI-II cow ULVC-Ab). A gene fragment encoding this construct was synthesised (Integrated DNA technologies, Table 21). […]
row,Molecule,ELISA signal from monoclonal phage ELISA
1,"C09: KnotBody with alternative 5-3 framing of EETI-II, VL CDR1 (protein, C09 (9820), KnotBody with alternative 5-3 framing of EETI-II, VL CDR1) QSVLTQPPSVSEAPRQRVTITCGGKRCGPNGFCGSGSDGGVCPRILMRCKQDSDCLAGCTSNWYQQKPGQAPVLVVQDDSVRPSGIPERFSGSNSGNTATLTISRVEAGDGADYYCQVWDISSDLGVFGGGTKLTVLGQP",C09 (9820)
2,"E03: KnotBody with alternative 5-3 framing of EETI-II, VL CDR2 (protein, E03 (82495), KnotBody with alternative 5-3 framing of EETI-II, VL CDR2) QSVLTQPPSVSEAPRQRVTITCSGSSSNIGNNAVNWYQQLPGKAPKLLIYAAGGCGPNGFCGSGSDGGVCPRILMRCKQDSDCLAGCGRNSGIPERFSGSKSGHTATLTISRVEAGDEADYYCQVWDSSSDHVLFGGGTKLTVLGQP",E03 (82495)
3,"F07: KnotBody with alternative 5-3 framing of EETI-II, VL CDR2 (protein, F07 (72824), KnotBody with alternative 5-3 framing of EETI-II, VL CDR2) QSVLTQPPSVSEAPRQRVTITCSGSSSNIGNNAVNWYQQLPGKAPKLLIYAAGGCGPNGFCGSGSDGGVCPRILMRCKQDSDCLAGCGGQSGVPDRFSGSKSGTSASLAISRLQSEDEADYYCAAWDDSLNAYVFGTGTKVTVLGQP",F07 (72824)
4,"E01: KnotBody with alternative 5-3 framing of EETI-II, VL CDR2 (protein, E01 (127988), KnotBody with alternative 5-3 framing of EETI-II, VL CDR2) QSVLTQPPSVSEAPRQRVTITCSGSSSNIGNNAVNWYQQLPGKAPKLLIYAAGGCGPNGFCGSGSDGGVCPRILMRCKQDSDCLAGCGIHSGVSDRFSDSKSGTSASLAISGLQSEDEADYYCAAWDDSLNGYVFGTGTKLTVLGQP",E01 (127988)
5,"E08: KnotBody with alternative 5-3 framing of EETI-II, VL CDR2 (protein, E08 (121047), KnotBody with alternative 5-3 framing of EETI-II, VL CDR2) QSVLTQPPSVSEAPRQRVTITCSGSSSNIGNNAVNWYQQLPGKAPKLLIYAAGGCGPNGFCGSGSDGGVCPRILMRCKQDSDCLAGCGIQSGIPERFSGSKSGTSASLAISGLRSEDEADYYCAAWDDNLSGYVFGTGTKLTVLGQP",E08 (121047)
6,"E09: KnotBody with alternative 5-3 framing of EETI-II, VL CDR2 (protein, E09 (70274), KnotBody with alternative 5-3 framing of EETI-II, VL CDR2) QSVLTQPPSVSEAPRQRVTITCSGSSSNIGNNAVNWYQQLPGKAPKLLIYAAGGCGPNGFCGSGSDGGVCPRILMRCKQDSDCLAGCGTQSGIPERFSGSKSGTSASLAISGLRSEDEADYYCAAWDDSLRAYVFGTGTQLTVLGQP",E09 (70274)
7,"E05: KnotBody with alternative 5-3 framing of EETI-II, VL CDR2 (protein, E05 (118631), KnotBody with alternative 5-3 framing of EETI-II, VL CDR2) QSVLTQPPSVSEAPRQRVTITCSGSSSNIGNNAVNWYQQLPGKAPKLLIYAAGGCGPNGFCGSGSDGGVCPRILMRCKQDSDCLAGCGAQSGIPERFSGSKSGTSASLAISGLQSEDEAHYYCAAWDDSLNGYVFGTGTKVTVLGQP",E05 (118631)
8,"F03: KnotBody with alternative 5-3 framing of EETI-II, VL CDR2 (protein, F03 (67972), KnotBody with alternative 5-3 framing of EETI-II, VL CDR2) QSVLTQPPSVSEAPRQRVTITCSGSSSNIGNNAVNWYQQLPGRAPKLLIYAAGGCGPNGFCGSGGDGGVCPRILMRCKQDSDCLAGCGAHSGIPERFSGSKSGTSASLAISGLRSEDEADYYCAAWDDSLNGWVFGGGTKVTVLGQP",F03 (67972)
